In test [1] the target is GFP-binding nanobody Enhancer (camelid). In words: Molecular Force Assay (Protein-MFA); multiplexed measurement of Fig. 2B: nanobody on the glass slide, sfGFP on the DNA reference; references compared: unmodified 40 bp DNA, 40 bp DNA with propynyl bases, 20 bp DNA with polyamide P1, P2 or P3 (1 uM); pH 7.4; read-out NF.
For test [2] the target is unchanged. In words: Molecular Force Assay (Protein-MFA); Enhancer covalently on the glass slide via its C-terminus (PEG linker); GFP attached at its N-terminus to the DNA reference; reference 20 bp DNA stabilized with polyamide P1; one contact process with a single stamp; retraction 1 um/s; read-out Normalized Fluorescence (NF), 0.5 = protein bond as strong as the reference.

GFP-binding nanobody Enhancer (camelid), sequence (heavy, as listed by the source): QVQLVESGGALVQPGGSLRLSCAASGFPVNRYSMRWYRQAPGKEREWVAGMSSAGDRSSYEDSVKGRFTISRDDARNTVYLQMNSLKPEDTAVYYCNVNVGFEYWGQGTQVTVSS

With “superfolder GFP (from UniProt P42212 1-238) (natural protein)”, the Normalized Fluorescence (NF), 40 bp DNA reference with propynyl bases in test [1] amounted to 0.8. In test [2], the Normalized Fluorescence (NF), 20 bp DNA reference with polyamide P1 worked out at 0.353.

(Values after PMC4278885.)
